Measured values as given in US20140287419A1, “Compositions Having Dicamba Decarboxylase Activity and Methods of Use” (priority 2013, published 2014).
Substitutions are numbered along the chain they refer to. Numbers in names are those of the source.

B1: SEQ ID NO:41: amidohydrolase 2, Polaromonas sp. JS666 (protein, listed as Polaromonas sp.)
chain: MANGKIALEEHFATEETLMDSAGFVPDKDWPELRSRLLDIQDRRVRLMDEHGIETMILSLNAPAVQAIADSTRANETARRANDFLAEQVAKQPTRFRGFAALPMQDPELAARELERCVKELGFVGALVNGFSQDNRSAVPLYYDMAQYWPFWETVQALDVPFYLHPRNPLPSDARIYDGHAWLLGPTWAFGQETAVHALRLMGSGLFDKYPALKIILGHMGEGLPYSMWRIDHRNAWIKTTPKYPAKRKIVDYFNENFYLTTSGNFRTQTLIDAILEIGADRILFSTDWPFENIDHAADWFENTSISEADRKKIGWGNAQNLFKLNR
B2: SEQ ID NO:111: Design variant of SEQ ID NO: 1 (protein)
chain: MAQGKVALEEHFAIPETLQDSMGFVPGDYWKELMHRLLDIQDTRLKLMDAHGIETMILSLNAPAVQAIPDRRKAIEIARRANDVLAEECAKRPDRFLAFAALPLQDPDAATEELQRCVNDLGFVGALVNGFSQEGDGQTPLYYDLPQYRPFWGEVEKLDVPFYLHPRNPLPQDSRIYDGHPWLLGPTWAFAQETAVHALRLMASGLFDEHPRLNIILGHMGEGLPYMMWRIDHRMAWIKLPPRYPAKRRFMDYFNENFHITTSGNFRTQTLIDAILEIGADRILFSTDWPFENIDHASDWFNATSIAEADRVKIGRTNARRLFKLDGA
modifications: Dicamba decarboxylase variant clone DC.4.112
B3: SEQ ID NO:113: Design variant of SEQ ID NO: 1 (protein)
chain: B2 chain with M22A, W30L, M34F, M235V, I238V
modifications: Dicamba decarboxylase variant clone DC.4.114
B4: SEQ ID NO:112: Design variant of SEQ ID NO: 1 (protein)
chain: B2 chain with M22A, M34V, M235V, I238V
modifications: Dicamba decarboxylase variant clone DC.4.113
B5: L240A: point mutation L240A of SEQ ID NO:109 (protein)
chain: B2 chain with M22A, M34Q, M235V, I238V, L240A
modifications: Dicamba decarboxylase variant clone DC.4.032
B6: A64G: point mutation A64G of SEQ ID NO:109 (protein)
chain: B2 chain with M22A, M34Q, A64G, M235V, I238V
modifications: Dicamba decarboxylase variant clone DC.4.032
B7: P63V: point mutation P63V of SEQ ID NO:109 (protein)
chain: B2 chain with M22A, M34Q, P63V, M235V, I238V
modifications: Dicamba decarboxylase variant clone DC.4.032
B8: N61G: point mutation N61G of SEQ ID NO:109 (protein)
chain: B2 chain with M22A, M34Q, N61G, M235V, I238V
modifications: Dicamba decarboxylase variant clone DC.4.032
B9: A64S: point mutation A64S of SEQ ID NO:109 (protein)
chain: B2 chain with M22A, M34Q, A64S, M235V, I238V
modifications: Dicamba decarboxylase variant clone DC.4.032
B10: N61S: point mutation N61S of SEQ ID NO:109 (protein)
chain: B2 chain with M22A, M34Q, N61S, M235V, I238V
modifications: Dicamba decarboxylase variant clone DC.4.032
B11: N214Q: point mutation N214Q of SEQ ID NO:109 (protein)
chain: B2 chain with M22A, M34Q, N214Q, M235V, I238V
modifications: Dicamba decarboxylase variant clone DC.4.032
B12: L240D: point mutation L240D of SEQ ID NO:109 (protein)
chain: B2 chain with M22A, M34Q, M235V, I238V, L240D
modifications: Dicamba decarboxylase variant clone DC.4.032
B13: V235I: point mutation V235I of SEQ ID NO:109 (protein)
chain: B2 chain with M22A, M34Q, M235I, I238V
modifications: Dicamba decarboxylase variant clone DC.4.032

assay: 14C assay with purified protein (14CO2 captured on Ca(OH)2 filter paper); type: biochemical; conditions: [14C]-carboxyl-labeled dicamba

With B1 as the molecule, how does the CO2 product read?
The CO2 product was “detected”.

Which CO2 product does the source give for B2 here?
The CO2 product was “detected”.

With B3 as the molecule, how does the CO2 product read?
Its CO2 product is “detected”.

With B4 as the molecule, how does the CO2 product read?
The CO2 product was “detected”.

assay: Detection of 4-chloro-3-methoxy phenol product by LC-MS/MS; type: biochemical; conditions: purified protein
Experimental: The decarboxylated and chloro hydrolyzed product, 4-chloro-3-methoxy phenol (FIG. 1D), is measured using a LC-MS/MS analytical procedure. […] 10 ul is removed from the reaction mixture and mixed with 90 ul pre-chilled methanol followed by centrifugation at 14,000 rpm for 15 min at 4° C. 10 ul of the supernatant is then transferred into 170 ul ddH2O to achieve 5% methanol solution for injection. 50 ul of the prepared sample is injected into a 4000 Q Trap LC-MS/MS system for sample analysis. LC-MS/MS parameters are: Mobile Phase A, 2 mM ammonium acetate in water; Mobile Phase B, 2 mM ammonium acetate in methanol; Column, Aquasil, 100×2.1 mm, 3 μm, C18 column; Flow Rate, 0.6 ml/min. The MS/MS fragment 157/142 which is common to 4-chloro-3-methoxy phenol, 2-chloro-5-methoxy phenol, and 3-chloro-5-methoxy phenol is monitored at a retention time of 2.88 min.

For B1, which 4-chloro-3-methoxy phenol product is on record?
The 4-chloro-3-methoxy phenol product was “detected”.

With B2 as the molecule, how does the 4-chloro-3-methoxy phenol product read?
The 4-chloro-3-methoxy phenol product was “detected”.

Which 4-chloro-3-methoxy phenol product does the source give for B3 here?
Its 4-chloro-3-methoxy phenol product is “detected”.

Which 4-chloro-3-methoxy phenol product does the source give for B4 here?
Its 4-chloro-3-methoxy phenol product is “detected”.

assay: Detection of 2,5-DCP product by GC/MS; type: biochemical; conditions: purified protein
Experimental: The decarboxylated and demethylated product of dicamba, 2,5-dichloro phenol or 2,5-DCP (FIG. 1E) is measured using a GC/MS analytical procedure with either liquid injection after liquid/liquid extraction using toluene as the extraction solvent or gas injection using head space method. The head space sample analysis is carried out on an Agilent GC/MS system with a 6890A GC, a 5973N MSD and a CTC CombiPAL auto-sampler or with a 7890A GC, a 5975C MSD and an Agilent GC Sampler 80 auto-sampler with Phenomenex ZB-MultiResidue-1 column (30 m length, 0.25 mm diameter, 0.25 um film) or equivalent. GC/MS parameters are: GC inlet temperature, 200° C.; Carry gas, helium in constant flow mode (1.2 mL/min); Oven temperature program, 70° C. for 1 min and then ramp to 275° C. at 40° C./min. […] The reaction vial is transferred to a agitator for incubation at 90° C. for 4 min at 500 rpm. With a syringe preheated at 110° C., 1000 uL of head space is injected with sample fill speed at 100 uL/sec. A 2-mm diameter liner is used in sample inlet. The MS data acquisition is done in SIM (selected ion monitoring) mode. The positive ion at M/Z 162 for the molecular ion of 2,-5-DCP is monitored at retention time of 4.06 min. Solvent delay for MS acquisition is set at 3 min. GC/MS parameters for liquid sample analysis are the same as those for head space analysis, except that the volume of liquid injection is 1 uL.

With B1 as the molecule, how does the “2,5-DCP product” value read?
Its value is “detected”.

For B2, which “2,5-DCP product” value is on record?
The value was “detected”.

For B3, which “2,5-DCP product” value is on record?
Its value is “detected”.

Which “2,5-DCP product” value does the source give for B4 here?
Its value is “detected”.

assay: Dicamba decarboxylation activity of computationally designed protein variants; conditions: native protein or designed variant versus parent

With B1 as the molecule, how does the “Dicamba Decarboxylase Activity” value read?
The value was “native dicamba decarboxylase activity”.

Which “Dicamba Decarboxylase Activity” value does the source give for B2 here?
The value was “displays an increase in dicamba decarboxylase activity”.

With B3 as the molecule, how does the “Dicamba Decarboxylase Activity” value read?
Its value is “displays an increase in dicamba decarboxylase activity”.

Which “Dicamba Decarboxylase Activity” value does the source give for B4 here?
Its value is “displays an increase in dicamba decarboxylase activity”.

assay: Saturation mutagenesis of SEQ ID NO:109, dicamba decarboxylation activity of point mutants; conditions: dicamba decarboxylation activity of point mutants of SEQ ID NO: 109 (NNK saturation mutagenesis), relative to the unchanged template

With B5 as the molecule, how does the “Average Activity (Fold of SEQ ID NO: 109)” value read?
The value was 2.3 Fold of SEQ ID NO: 109.

Which “Average Activity (Fold of SEQ ID NO: 109)” value does the source give for B6 here?
Its value is 2.6 Fold of SEQ ID NO: 109.

With B7 as the molecule, how does the “Average Activity (Fold of SEQ ID NO: 109)” value read?
The value was 1.8 Fold of SEQ ID NO: 109.

Which “Average Activity (Fold of SEQ ID NO: 109)” value does the source give for B8 here?
The value was 2.3 Fold of SEQ ID NO: 109.

For B9, which “Average Activity (Fold of SEQ ID NO: 109)” value is on record?
Its value is 2.1 Fold of SEQ ID NO: 109.

Which “Average Activity (Fold of SEQ ID NO: 109)” value does the source give for B10 here?
The value was 2.5 Fold of SEQ ID NO: 109.

With B11 as the molecule, how does the “Average Activity (Fold of SEQ ID NO: 109)” value read?
Its value is 1.8 Fold of SEQ ID NO: 109.

For B12, which “Average Activity (Fold of SEQ ID NO: 109)” value is on record?
Its value is 2.2 Fold of SEQ ID NO: 109.

With B13 as the molecule, how does the “Average Activity (Fold of SEQ ID NO: 109)” value read?
Its value is 1.8 Fold of SEQ ID NO: 109.

same assay, conditions: dicamba decarboxylation activity of single point mutants of SEQ ID NO:109, relative to unchanged template

With B6 as the molecule, how does the “Average Activity (Fold of SEQ ID NO: 109)” value read?
Its value is 2.6 Fold of SEQ ID NO: 109.

With B10 as the molecule, how does the “Average Activity (Fold of SEQ ID NO: 109)” value read?
The value was 2.5 Fold of SEQ ID NO: 109.

Which “Average Activity (Fold of SEQ ID NO: 109)” value does the source give for B11 here?
The value was 1.8 Fold of SEQ ID NO: 109.

With B13 as the molecule, how does the “Average Activity (Fold of SEQ ID NO: 109)” value read?
Its value is 1.8 Fold of SEQ ID NO: 109.

assay: 14C assay with IPTG-induced recombinant E. coli cells (14CO2 capture from [14C]-carboxyl-labeled dicamba); conditions: E. coli cell assay, 108 sequences tested

Which “decarboxylation activity of dicamba” value does the source give for B1 here?
The value was “showed decarboxylation activity of dicamba”.
